# Test results from patent US5985278A (Merck Patent Gesellschaft mit Beschrankter Haftung, priority 1994, dated 1999).
# Several values for one entry are separate records, joined by “and”; a condition that tells them apart may be missing. Identical values can stand only once.
# B1: 17E6: murine IgG1 monoclonal antibody against human αv-integrin chain, from hybridoma 272-17E6 (DSM ACC2160) (antibody, V domains shown)
# VH: QVQLQQSGAELAEPGASVKMSCKASGYTFSSFWMHWVKQRPGQGLEWIGYINPRSGYTECNEIFRDKATMTADTSSSTAYMQLSGLTSEDSAVYYCASFLGRGAMDYWGQGTSVTVSS
# VL: DIQMTQTTSSLSASLGDRVIISCRASQDISNYLSWYQQKPDGTVKLLIFYTSKLHSGVPSRFSGSGSGTDYSLTISNLDQEDIATYFCQQGNTFPYTFGGGTKVEMR
# Key:
# [1] = in vivo; cited from earlier work
# αvβ3 = biological target: T1, αvβ3 (Homo sapiens, UniProt P05106+P06756); test: Direct competition assay, vitronectin binding to isolated αvβ3; settings: isolated receptor
# T1 construct: αVβ3 was purified from human placenta; from tissue; host or cells: human term placenta
# Method: The plate was washed once with buffer B (3% BSA (w/v), 100 mM NaCl, 1 mM MgCl2, 1 mM CaCl2, 10 mM MnCl2, 50 mM Tris-HCl; pH 7.4) and incubated 2 h at 20° C. in the same buffer.
# After rinsing with buffer C (buffer B with BSA at 0.1% (w/v)) was added containing biotinylated ligand (1 μg ml^-1 end concentration) and serially diluted test peptides or proteins. After incubation (3 h, 30° C.), unbound ligand was washed from the plate by 3 rinses with buffer C, and incubation continued for 1 h with anti-biotin-alkaline phosphatase-conjugated antibody (1:10000 in buffer C) (Sigma) followed by PBS wash and detection of bound antibody with NBT-BCIP (Biorad) as substrate. ECM molecules and antibodies were routinely biotinylated and used in such an assay configuration.
# Assays were routinely performed in triplicate or quadruplicate, and repeated at least 3 times to derive an IC50 from an unweighted sigmoid curve fit. Results were normalized against external control peptides to allow intra-assay comparison.
# [2] = tested on: M21-L, M21-L4 and M21-L-IIb cells; test: DNA synthesis ([3H]-thymidine incorporation) in M21 variant lines; format: cell-based, human; settings: M21-L and M21-LGpIIb, FIG. 9 B, D
# Method: (§1) Adherent melanoma cells were detached (0.05% Trypsin/0.02% EDTA). Washed cells were seeded into 96-well flat-bottom microtest plates (1×10^4 cells per well) and cultured without (control) or in the presence of serially diluted antibodies in RPMI medium with 10% FCS. After 48 h, cells were pulse labelled for 18 h (18.5 kBeq [^3 H]-thymidine per well) and harvested. Incorporated radioactivity was measured and expressed as counts per minute.
# purified αvβ3 = test: ELISA on purified αvβ3; format: binding, human
# M21 cells [3] = test: Flow cytometry (FACS) on M21; format: binding, human
# Method: (§2) Cells were harvested with EDTA, washed, and 10^6 cells in PBS-1% BSA were incubated with MAb (10 μg ml^-1; 20 min, 4° C.). After washing and labelling (20 min, 4° C.) with goat anti-mouse Ig-FITC (Becton Dickinson), cells were incubated with propidium iodide before flow cytometry analysis (EPICS Profile II, Coulter). Living cells were selected by appropriate gates on the side and forward scatter. Fluorescein was excited at 488 nm with an argon ion laser and the emitted fluorescence (525 nm) was recorded. In some experiments, M21-L cells were stained following a brief fixation and permeabilization step (70% ethanol; 5 min×-20° C.).
# M21-L cells = test: Flow cytometry (FACS) on M21-L; format: binding, human; settings: relative to secondary antibody only
# Method: as §2
# M21-L-IIb cells = test: Flow cytometry (FACS) on M21-L-IIb; format: binding, human; settings: relative to secondary antibody only
# Method: as §2
# M21-L4 cells = test: Flow cytometry (FACS) on M21-L4; format: binding, human; settings: relative to secondary antibody only
# Method: as §2
# M21-L12 cells = test: Flow cytometry (FACS) on M21-L12; format: binding, human; settings: relative to secondary antibody only
# Method: as §2
# UCLA-P3 cells = test: Flow cytometry (FACS) on UCLA-P3; format: binding, human; settings: relative to secondary antibody only
# Method: as §2
# WM793 cells [4] = test: Flow cytometry (FACS) on WM793; format: binding, human; settings: relative to secondary antibody only
# Method: as §2
# B16F10 cells [5] = test: Flow cytometry (FACS) on B16F10; format: binding; settings: murine cell
# Method: as §2
# [6] = tested on: human melanoma and carcinoma cell lines; test: αV-mediated cell attachment to vitronectin, cell line panel; format: cell-based
# Method: (§3) Cell Attachment Assays were as previously described (Goodman et al., 1991), using hexosaminidase activity (Landegren, 1984) to detect attached cells. Dilutions and cell suspensions were in attachment buffer (RPMI, 1% BSA, 25 mM HEPES; pH 7.4). Matrix proteins were coated onto 96- or 48-well plates, the wells were blocked with BSA and serially diluted MAbs were added to the wells followed by cells (2.5×10^4 -5×10^4). After 1 h at 37° C., non-adherent cells were washed away and attached cells counted against a standard curve run in parallel. Inhibition of attachment was calculated by using wells with no MAbs as reference. Typically, over 70% of added cells had attached to vitronectin at 1 h. Cell attachment to wells coated with BSA alone was routinely less than 5% of specifically attached cells.
# M21 cells [7] = test: M21 cell attachment to vitronectin; format: cell-based, human; settings: maximal block
# Method: as §3
# αvβ5 (UCLA-P3 cells) = test: Cell attachment to vitronectin mediated by αvβ5 (UCLA-P3 cells); format: cell-based, human
# Method: as §3
# WM793 cells [8] = test: WM793 cell attachment to vitronectin; format: cell-based, human; settings: FIG. 4e,f
# Method: as §3
# αvβ1 (V+B2 cells) = test: Cell attachment to vitronectin mediated by αvβ1 (V+B2 cells); format: cell-based; settings: FIG. 11
# Method: as §3
# [9] = tested on: αvβ3 (WM164 and M21 cells); test: Cell attachment to vitronectin mediated by αvβ3 (WM164 and M21 cells); format: cell-based, human; settings: FIG. 11
# Method: as §3
# B16F10 cells [10] = test: B16F10 cell attachment to vitronectin; format: cell-based; settings: murine cell
# Method: as §3
# M21 cells [11] = test: M21 cell attachment to laminin and collagen; format: cell-based, human; settings: M21, FIG. 5
# Method: as §3
# M21 tumors = test: Subcutaneous M21 tumor development in nude mice; format: in vivo, BALB/c nu/nu mice
# Method: (§4) Tumor cells in exponential growth were harvested with EDTA, washed and examined for viability by trypan blue dye exclusion. Viability was between 96-99%. For primary tumor growth, cells (0.5×10^6 cells in 0.2 ml PBS++) were injected subcutaneously into the flanks of nude mice. Tumor growth was followed by measuring tumor diameters with callipers and the tumor volume was calculated using an approximated formula for a prolate ellipsoid: […]
# (§5) where a is the longest axis of the tumor and b the shortest. A minimum of eight animals was used per group.
# (§6) For experimental lung metastasis, cells were harvested (0.05% Trypsin/0.02%EDTA) and were injected into the tail vein of nude mice (0.5×10^6 cells in 0.2 ml PBS++). 7 weeks later the animals were sacrificed, the lungs removed and fixed in a Bouins' solution, and the tumor foci on the surface of the lungs counted. For antibody treatment, harvested and washed cells were incubated with purified endotoxin free MAbs (70 μg per 10^6 cells 0.5 ml PBS++) for 30 min at 20° C. in an end-over-end rotator before dilution to 0.5×10^6 cells in 0.2 ml PBS and injection. Cells viability was assessed by Trypan blue dye exclusion before and after completing the injection schedule, where no significant difference was found (viability pre-injection=viability post injection ±5%). The tumor inhibition data was assessed using the 2-tailed Student T-test.
# M21-L = test: Subcutaneous M21-L tumor development in nude mice; format: in vivo, BALB/c nu/nu mice; settings: FIG. 7b
# Method: as §4, §5, §6
# M21 tumor foci = test: Lung colonization experimental metastasis assay; format: in vivo, BALB/C nu/nu mice
# Method: as §6
# M21 cells [12] = test: M21 cell proliferation assay; format: cell-based, human; design: dose or concentration left out as unconfirmed; settings: M21, antibody (FIG. 8a)
# Method: […] Growth and viability were estimated by Trypan blue dye exclusion. Activation was measured by the MTT assay as described above, and cell numbers were counted daily using a cell counter (Coulter electronics).
# M21 cells [13] = test: Antibody-directed cellular cytotoxicity (ADCC) with BALB/c microglia; format: cell-based, human; settings: up to 10^-7 M, murine microglia effector cells
# Method: Preparation of BALB/C microglial cells and conditions for ADCC and antibody-effector cell mediated cytostasis (AECM) were essentially as described (Sutter et al., 1991). M21 cells were pulsed for 18 h with ^3 H-thymidine (18 kBq per 4×10^3 cells per well) and incubated on 96-well plates with BALB/C microglia (5×10^4 cells per well) in 200 μl DMEM/FCS (10%) in the presence of antibodies. After 48 hrs, [^3 H] label retained in the nuclear compartment of target cells was measured. MAb dependent cytotoxicity was calculated using the formula: [(experimental ccpm-spontaneous ccpm)/(maximum ccpm-spontaneous ccpm)]×100.
# M21 cells [14] = test: DNA synthesis ([3H]-thymidine incorporation) in M21; format: cell-based, human; design: dose or concentration left out as unconfirmed
# Method: as §1
# M21 cells [15] = test: Complement dependent cytotoxicity (CDC); format: cell-based, human; settings: not shown
# Method: M21 cells (10,000) were plated in a 96-well plate with 50 μl of complete medium and 20 μl of antibodies. Rabbit serum (50 μl, 1:5; Behring) was added as source of complement and plate was incubated (37° C.; 60 min). Lysis was quantified by MTT technique (Mosmann, 1983). Percent of lysis was calculated using wells with 1% Tween-20 as 100% lysed controls, and without antibody as 0% lysed control.
# T1 sequence (P06756 31-889 limits assumed): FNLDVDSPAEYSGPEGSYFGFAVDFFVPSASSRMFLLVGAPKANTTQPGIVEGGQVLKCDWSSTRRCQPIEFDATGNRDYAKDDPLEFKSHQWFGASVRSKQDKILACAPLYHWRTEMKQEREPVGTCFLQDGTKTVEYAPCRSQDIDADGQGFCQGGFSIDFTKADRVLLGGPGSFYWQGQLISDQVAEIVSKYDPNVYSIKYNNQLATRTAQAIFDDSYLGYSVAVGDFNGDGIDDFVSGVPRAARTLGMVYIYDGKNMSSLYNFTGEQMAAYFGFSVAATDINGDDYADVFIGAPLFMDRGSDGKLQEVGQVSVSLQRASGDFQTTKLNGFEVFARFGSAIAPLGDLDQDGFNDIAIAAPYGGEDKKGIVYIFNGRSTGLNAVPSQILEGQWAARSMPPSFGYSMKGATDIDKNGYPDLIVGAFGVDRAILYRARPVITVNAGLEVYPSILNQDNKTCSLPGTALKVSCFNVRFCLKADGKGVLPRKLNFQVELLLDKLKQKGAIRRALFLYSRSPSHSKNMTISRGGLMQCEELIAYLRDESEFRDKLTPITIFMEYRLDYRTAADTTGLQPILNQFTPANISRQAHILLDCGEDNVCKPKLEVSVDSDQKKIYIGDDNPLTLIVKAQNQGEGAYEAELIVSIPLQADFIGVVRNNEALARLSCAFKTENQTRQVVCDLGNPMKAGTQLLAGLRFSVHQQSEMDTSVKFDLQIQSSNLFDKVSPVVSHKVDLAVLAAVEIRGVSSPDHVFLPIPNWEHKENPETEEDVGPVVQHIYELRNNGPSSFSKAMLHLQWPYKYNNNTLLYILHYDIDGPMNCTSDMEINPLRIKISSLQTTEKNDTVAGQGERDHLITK
# T1 sequence (P06756 891-1048 limits assumed): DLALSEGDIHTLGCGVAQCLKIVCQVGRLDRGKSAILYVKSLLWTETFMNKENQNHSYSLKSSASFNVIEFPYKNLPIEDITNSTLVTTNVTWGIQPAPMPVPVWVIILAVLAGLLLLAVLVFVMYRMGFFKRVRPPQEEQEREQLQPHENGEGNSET
# T1 sequence (P05106 27-788): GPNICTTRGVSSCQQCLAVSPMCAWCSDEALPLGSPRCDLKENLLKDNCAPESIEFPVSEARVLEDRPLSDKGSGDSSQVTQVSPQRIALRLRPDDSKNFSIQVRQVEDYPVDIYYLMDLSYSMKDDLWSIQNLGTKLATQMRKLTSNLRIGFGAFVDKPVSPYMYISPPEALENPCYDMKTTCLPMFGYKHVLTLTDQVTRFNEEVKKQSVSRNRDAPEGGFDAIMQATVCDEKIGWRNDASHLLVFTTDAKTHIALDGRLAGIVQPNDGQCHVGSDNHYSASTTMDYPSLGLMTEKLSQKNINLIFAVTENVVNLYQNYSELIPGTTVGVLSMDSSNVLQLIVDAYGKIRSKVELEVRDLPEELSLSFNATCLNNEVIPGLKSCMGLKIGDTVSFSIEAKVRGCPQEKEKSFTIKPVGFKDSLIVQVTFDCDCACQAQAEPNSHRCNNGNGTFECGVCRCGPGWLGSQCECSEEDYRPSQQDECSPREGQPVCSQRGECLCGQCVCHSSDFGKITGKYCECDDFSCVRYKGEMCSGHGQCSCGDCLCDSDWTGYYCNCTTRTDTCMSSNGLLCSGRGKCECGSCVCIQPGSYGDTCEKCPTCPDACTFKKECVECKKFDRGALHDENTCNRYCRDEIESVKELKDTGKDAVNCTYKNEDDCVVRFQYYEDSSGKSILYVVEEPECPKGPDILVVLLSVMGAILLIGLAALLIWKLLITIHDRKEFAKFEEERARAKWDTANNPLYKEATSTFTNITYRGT
molecule,measurement,setting,value
RGDS: RGD-peptide (SEQ ID NO:6),serum half-life,[1],8 min
GRGDSPK [Gly-Arg-Gly-Asp-Ser-Pro-Lys],IC50,αvβ3,~2000 nM
CC(=O)O[C@H]1C(=O)[C@@]2(C)[C@H]([C@H](OC(=O)c3ccccc3)[C@]3(O)C[C@H](OC(=O)[C@H](O)[C@@H](NC(=O)c4ccccc4)c4ccccc4)C(C)=C1C3(C)C)[C@]1(OC(C)=O)CO[C@@H]1C[C@@H]2O [Taxol],"DNA synthesis, positive control",[2],completely suppresses
B1,50% saturation in ELISA on isolated αvβ3,purified αvβ3; FIG. 10,~ 1 ng ml^-1
same,50% binding to αvβ3 in ELISA,purified αvβ3; screening ELISA,10 to 20 ng/mL
same,EC50,"purified αvβ3; screening ELISA, read-out: 50% binding to αvβ3 in ELISA",0.05 to 0.1 nM
same,"Reactivity in flow cytometry, M21 (αvβ3; αvβ5)","M21 cells [3]; relative to secondary antibody only, MAb 10 μg ml^-1",++ (4-9 (++))
same,FACS reaction with M21,M21 cells [3]; αv-expressing line,strongly
same,"Reactivity in flow cytometry, M21-L",M21-L cells,- (1-2 (-))
same,"Reactivity in flow cytometry, M21-L-llb (αllbβ3)",M21-L-IIb cells,- (1-2 (-))
same,"Reactivity in flow cytometry, M21-L4",M21-L4 cells,++ (4-9 (++))
same,"Reactivity in flow cytometry, M21-L12",M21-L12 cells,- (1-2 (-))
same,"Reactivity in flow cytometry, UCLA-P3 (αvβ5)",UCLA-P3 cells,+++ (>9 (+++))
same,"Reactivity in flow cytometry, WM793 (αvβ3; αvβ5)",WM793 cells [4],+++ (>9 (+++))
same,FACS reaction with B16F10,B16F10 cells [5],did not react
same,IC50 in cellular assay,[6],~ 100 ng ml^-1
same,IC50,"[6]; antibody MW 150,000, read-out: IC50, αV-mediated cell attachment",0.3 to 1 nM
same,initial attachment to vitronectin of cells reacting in FACS with 17E6,"[6]; hybridoma supernatants, FIG. 3",strongly blocked
same,block of M21 initial attachment to vitronectin,M21 cells [7],~ 85% and ~ 90%
same,"IC50, attachment to vitronectin on αvβ5 (UCLAP3)","αvβ5 (UCLA-P3 cells); FIG. 4c,d",~ 30 ng ml^-1
same,"IC50, cell attachment mediated by αvβ5 (UCLA-P3 cells)","αvβ5 (UCLA-P3 cells); vitronectin, FIG. 11",~ 0.1 μg ml^-1
same,"IC50, WM793 attachment to vitronectin",WM793 cells [8],~ 60 ng ml^-1
same,"IC50, cell attachment mediated by αvβ1 (V+B2 cells)",αvβ1 (V+B2 cells),~ 0.1 μg ml^-1
same,"IC50, αvβ3 attachment (WM164 and M21 cells)",[9],~ 0.5 μg ml^-1
same,B16F10 attachment on vitronectin,B16F10 cells [10],not affected
same,"cell attachment to other matrix substrates (laminin, collagen)",M21 cells [11],lack of effect
same,tumors and metastases at sacrifice,"M21 tumors; 6 months, lungs, liver, kidney, spleen, colon, stomach, body cavities",neither subcutaneous tumors nor metastases
same,tumors taken in the presence of antibody,M21 tumors; M21 cells subcutaneously co-injected with antibody,0/32
same,experiments in which subcutaneous development of M21 tumors was blocked,"M21 tumors; mouse, in vivo",4/4
same,time animals remain tumor free,"M21 tumors; mouse, in vivo",> 6 months
same,subcutaneous M21-L growth / take,M21-L,unaffected
same,Tumor Take,M21 tumor foci; 7 weeks after tail vein injection,78
same,"Number of Tumor Foci, Mean ± SEM","M21 tumor foci; lung surface, 7 weeks",8 ± 7.7
same,"Number of Tumor Foci, Median","M21 tumor foci; lung surface, 7 weeks",5
same,reduction of numbers of tumor colonies,"M21 tumor foci; pre-incubation of M21 with antibody, tail-vein injection",90%
same,% Control,M21 tumor foci; tumor foci relative to M21 control,9%
same,kinetic of cell growth and saturation density,M21 cells [12],not greatly influenced
same,ADCC against M21,M21 cells [13],did not mediate ADCC
same,thymidine incorporation in M21 cells,M21 cells [14],no effect
same,complement mediated lysis on M21 cells,M21 cells [15],did not affect
